Source: PMC4244113
Where two headings read alike, the source gives them in different places.

B1: Arabidopsis thaliana eIFiso4E (natural protein)
chain: MATDDVNEPLPAAAELPATEAEKQPHKLERKWSFWFDNQSKKGAAWGASLRKAYTFDTVEDFWGLHETIFQTSKLTANAEIHLFKAGVEPKWEDPECANGGKWTWVVTANRKEALDKGWLETLMALIGEQFDEADEICGVVASVRPQSKQDKLSLWTRTKSNEAVLMGIGKKWKEILDVTDKITFNNHDDSRRSRFTV

Key:
Assay in all cases: SPR
[1] = target: Turnip mosaic virus (TuMV) viral protein-genome linked (VPg), His-tagged (turnip mosaic virus)
[2] = target: Turnip mosaic virus (TuMV) viral protein-genome linked (VPg), His-tagged (turnip mosaic virus); remark: listed apart in the source
[3] = target: Turnip mosaic virus (TuMV) viral protein-genome linked (VPg), His-tagged (turnip mosaic virus); remark: listed apart in the source

Chain of Turnip mosaic virus (TuMV) viral protein-genome linked (VPg), His-tagged (turnip mosaic virus) (P89509 1925-2116 limits assumed): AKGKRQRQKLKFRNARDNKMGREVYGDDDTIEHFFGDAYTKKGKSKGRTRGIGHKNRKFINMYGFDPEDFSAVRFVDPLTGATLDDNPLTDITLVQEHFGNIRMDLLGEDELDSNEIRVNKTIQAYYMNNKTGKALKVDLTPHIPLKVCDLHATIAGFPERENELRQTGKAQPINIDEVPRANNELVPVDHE

Row | Molecule | Kd [1] [µM] | koff [1] [s⁻¹] | kon [1] [M⁻¹ s⁻¹] | Kd [2] [nM] | koff [2] [s⁻¹] | kon [2] [M⁻¹ s⁻¹] | Kd [3] [nM] | koff [3] [s⁻¹] | kon [3] [M⁻¹ s⁻¹]
1 | N-terminal 33 residues-deleted human eIF4E (from UniProt P06730 34-217) (domain or fragment) | 3.29 | 0.00447 | 1360 |  |  |  |  |  | 
2 | B1 |  |  |  | 1410 | 0.00459 | 3250 | 208 | 0.00432 | 20800
